This note sets out measurements from patent US20150064184A1.

The target in experiment [1] is human insulin receptor extracellular domain (HIR ECD) (human) (UniProt P06213). Description: ELISA, HIR ECD plated (second experiment). A general note: In an ELISA, binding on a coated surface is turned into a signal by an enzyme label.
For experiment [2] the target is unchanged. Description: ELISA, HIR ECD plated; compared with the HIR Ab.

On to “GUSB-HIR Ab fusion protein (human GUSB fused to the amino terminus of the HIR Ab heavy chain) (from UniProt P08236 23-633) (antibody)”, for which, in experiment [1], the EC50 came out at 4.8 nM. In experiment [2], this substance came in with a reduction in receptor binding affinity against the HIR Ab of 95%.

By EC50 is commonly meant the midpoint of the concentration-response curve. Read a low EC50 as greater potency.
